Test results as given in patent publication US20230265151A1, “GIP/GLP1 CO-AGONIST COMPOUNDS” (priority 2020, published 2023).
Substitutions are numbered along the chain they refer to.

What was measured:
[1] = target: T1, human glucagon receptor (human, UniProt P47871 26-477); assay: SPA competition vs [125I]-Gcg, hGcgR membranes
T1 construct: whole, on cells; also called hGCGR; hGcgR
Method: The binding buffer contains 25 mM 4-(2-hydroxyethyl)-1-piperazineethanesulfonic acid (HEPES), pH 7.4, 2.5 mM CaCl₂, 1 mM MgCh, 0.1% (w/v) bacitracin (Research Products), 0.003% (w/v) Polyoxyethylenesorbitan monolaurate (TWEEN®-20), and Roche Complete™ Protease Inhibitors without EDTA. […] Plates are sealed and mixed on a plate shaker (setting 6) for 1 minute and read with a PerkinElmer Trilux MicroBeta® scintillation counter after 12 hours of incubation/settling time at room temperature.
Data are analyzed using four-parameter (curve maximum, curve minimum, IC₅₀, Hill slope) nonlinear regression routines (Genedata Screener, version 12.0.4, Genedata AG, Basal, Switzerland). […] Values for Kᵢ are reported as the geometric mean, with error expressed as the standard error of the mean (SEM) and n is equal to the number of independent replicates (determined in assays performed on different days).

[2] = target: T2, human GLP-1 receptor (human, UniProt P43220 24-463); assay: SPA competition vs [125I]-GLP-1, hGLP-1R membranes
T2 construct: whole, on cells; also called hGLP-1R; human glucagon-like peptide-1 receptor
Procedure, shortened: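 Kᵢ values are geometric means (SEM) over replicates run on separate days, derived from IC₅₀ of four-parameter curve fits. Buffer: HEPES 25 mM pH 7.4 with CaCl₂ 2.5 mM, MgCl₂ 1 mM, bacitracin 0.1%, TWEEN-20 0.003%, EDTA-free protease inhibitors.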

[3] = target: T3, human GIP receptor (human, UniProt P48546 22-466); assay: SPA competition vs [125I]-GIP, hGIPR membranes
T3 construct: whole, on cells; also called hGIPR; human glucose-dependent insulinotropic polypeptide receptor
T3 sequence (looked up): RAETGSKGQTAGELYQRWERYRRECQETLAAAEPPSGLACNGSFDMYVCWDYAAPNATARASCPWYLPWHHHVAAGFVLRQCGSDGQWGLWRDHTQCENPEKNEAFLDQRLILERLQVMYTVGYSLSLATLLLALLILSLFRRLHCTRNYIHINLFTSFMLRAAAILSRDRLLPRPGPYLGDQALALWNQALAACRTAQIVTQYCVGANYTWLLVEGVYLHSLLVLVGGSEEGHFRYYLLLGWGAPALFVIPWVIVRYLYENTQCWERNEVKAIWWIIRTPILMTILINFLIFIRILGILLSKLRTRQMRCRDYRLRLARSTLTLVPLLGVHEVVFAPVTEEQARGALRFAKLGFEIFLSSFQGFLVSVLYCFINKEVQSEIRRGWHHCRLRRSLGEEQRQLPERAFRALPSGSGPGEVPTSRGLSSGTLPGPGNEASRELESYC

T1 sequence (P47871 26-477): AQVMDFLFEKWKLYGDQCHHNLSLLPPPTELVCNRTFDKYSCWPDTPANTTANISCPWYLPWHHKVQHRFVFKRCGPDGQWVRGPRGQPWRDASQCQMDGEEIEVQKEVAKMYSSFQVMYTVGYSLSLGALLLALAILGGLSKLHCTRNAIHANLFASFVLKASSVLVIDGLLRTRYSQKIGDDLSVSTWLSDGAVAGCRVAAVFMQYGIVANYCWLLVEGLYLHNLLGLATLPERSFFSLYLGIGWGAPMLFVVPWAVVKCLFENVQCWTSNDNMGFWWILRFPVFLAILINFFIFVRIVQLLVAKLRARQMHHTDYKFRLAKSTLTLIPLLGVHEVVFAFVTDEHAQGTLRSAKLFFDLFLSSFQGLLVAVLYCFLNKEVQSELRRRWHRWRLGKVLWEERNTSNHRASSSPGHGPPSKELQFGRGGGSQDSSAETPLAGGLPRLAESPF

B1: Y-Aib-EGT-αMeF(2F)-TSD-4Pal-SI-αMeL-LD-Orn-IAQ-Aib-EFI-(D-Glu)-αMeY-LIK((2-[2-(2-Amino-ethoxy)-ethoxy]-acetyl)2-(γ-Glu)-CO-(CH2)14-CH3)GGK((2-[2-(2-Amino-ethoxy … (peptide)
peptide: YXEGTXTSDXSIXLDXIAQXEFIXXLIKGGKSSGAPPPS
modifications: Aib2, αMeF(2F)6, 4Pal10, αMeL13, Orn16, Aib20, D-Glu24, αMeY25, K28(Z1), K31(Z1), C-term NH2; Z1=AEEA2-(γ-Glu)-CO-(CH2)14-CH3
Work on B1 yielded a Ki [1] of 3.82 nM, a Ki [2] of 0.867 nM and a Ki [3] of 0.0863 nM.

B2: Y-Aib-EGT-αMeF(2F)-TSD-4Pal-SI-αMeL-LD-Orn-IAQ-Aib-K((2-[2-(2-Amino-ethoxy)-ethoxy]-acetyl)2-(γ-Glu)-CO-(CH2)12-CO2H)FI-(D-Glu)-αMeY-LIK((2-[2-(2-Amino-ethoxy)- … (peptide)
peptide: B1 peptide with E21K, K31P
modifications: Aib2, αMeF(2F)6, 4Pal10, αMeL13, Orn16, Aib20, K21(Z1), D-Glu24, αMeY25, K28(Z1), C-term NH2; Z1=AEEA2-(γ-Glu)-CO-(CH2)12-CO2H
In the case of B2, the Ki [1] is reported as 53.9 nM, the Ki [2] is reported as 3.38 nM and the Ki [3] is reported as 0.0454 nM.

B3: Y-Aib-EGT-αMeF(2F)-TSD-4Pal-SI-αMeL-LD-Orn-K((2-[2-(2-Amino-ethoxy)-ethoxy]-acetyl)2-(γ-Glu)-CO-(CH2)10-CH3)AQ-Aib-K((2-[2-(2-Amino-ethoxy)-ethoxy]-acetyl)2-(γ- … (peptide)
peptide: B1 peptide with I17K, E21K, K28E, K31P
modifications: Aib2, αMeF(2F)6, 4Pal10, αMeL13, Orn16, K17(Z1), Aib20, K21(Z1), D-Glu24, αMeY25, C-term NH2; Z1=AEEA2-(γ-Glu)-CO-(CH2)10-CH3
For B3, the Ki [1] was 8.29 nM, the Ki [2] was 0.25 nM and the Ki [3] was 0.0403 nM.

B4: Y-Aib-EGT-αMeF(2F)-TSD-4Pal-SI-αMeL-LD-Orn-K((2-[2-(2-Amino-ethoxy)-ethoxy]-acetyl)2-(γ-Glu)-CO-(CH2)14-CH3)AQ-Aib-EFI-(D-Glu)-αMeY-LIEGK((2-[2-(2-Amino-ethoxy) … (peptide)
peptide: B1 peptide with I17K, K28E, G30K, K31P
modifications: Aib2, αMeF(2F)6, 4Pal10, αMeL13, Orn16, K17(Z1), Aib20, D-Glu24, αMeY25, K30(Z1), C-term NH2; Z1=AEEA2-(γ-Glu)-CO-(CH2)14-CH3
With B4 the Ki [1] was 0.646 nM, the Ki [2] was 0.52 nM and the Ki [3] was 0.0361 nM.

B5: Y-Aib-EGT-αMeF(2F)-TSD-4Pal-SI-αMeL-LD-Orn-K((2-[2-(2-Amino-ethoxy)-ethoxy]-acetyl)2-(γ-Glu)-CO-(CH2)14-CH3)AQ-Aib-EFI-(D-Glu)-αMeY-LIK((2-[2-(2-Amino-ethoxy)-e … (peptide)
peptide: B1 peptide with I17K, K31P
modifications: Aib2, αMeF(2F)6, 4Pal10, αMeL13, Orn16, K17(Z1), Aib20, D-Glu24, αMeY25, K28(Z1), C-term NH2; Z1=AEEA2-(γ-Glu)-CO-(CH2)14-CH3
Work on B5 yielded a Ki [1] of 1.18 nM, a Ki [2] of 0.251 nM and a Ki [3] of 0.0238 nM.

B6: Y-Aib-EGT-αMeF(2F)-TSD-4Pal-SI-αMeL-LD-Orn-K((2-[2-(2-Amino-ethoxy)-ethoxy]-acetyl)2-(γ-Glu)-CO-(CH2)14-CH3)AQ-Aib-K((2-[2-(2-Amino-ethoxy)-ethoxy]-acetyl)2-(γ- … (peptide)
peptide: B1 peptide with I17K, E21K, K28E, K31P
modifications: Aib2, αMeF(2F)6, 4Pal10, αMeL13, Orn16, K17(Z1), Aib20, K21(Z1), D-Glu24, αMeY25, C-term NH2; Z1=AEEA2-(γ-Glu)-CO-(CH2)14-CH3
With B6 the Ki [1] was 0.293 nM, the Ki [2] was 0.246 nM and the Ki [3] was 0.0231 nM.

B7: Y-Aib-EGT-αMeF(2F)-TSD-4Pal-SI-αMeL-LD-Orn-K((2-[2-(2-Amino-ethoxy)-ethoxy]-acetyl)2-CO-(CH2)12-CO2H)AQ-Aib-K((2-[2-(2-Amino-ethoxy)-ethoxy]-acetyl)2-CO-(CH2)12 … (peptide)
peptide: B1 peptide with I17K, E21K, K28E, K31P
modifications: Aib2, αMeF(2F)6, 4Pal10, αMeL13, Orn16, K17(Z1), Aib20, K21(Z1), D-Glu24, αMeY25, C-term NH2; Z1=AEEA2-CO-(CH2)12-CO2H
In the case of B7, the Ki [1] is reported as 625 nM, the Ki [2] is reported as 0.881 nM and the Ki [3] is reported as 0.0627 nM.

B8: Y-Aib-EGT-αMeF(2F)-TSD-4Pal-SI-αMeL-LD-Orn-K((γ-Glu)-(2-[2-(2-Amino-ethoxy)-ethoxy]-acetyl)-CO-(CH2)12-CO2H)AQ-Aib-EFI-(D-Glu)-αMeY-LIEGGK((γ-Glu)-(2-[2-(2-Amin … (peptide)
peptide: B1 peptide with I17K, K28E
modifications: Aib2, αMeF(2F)6, 4Pal10, αMeL13, Orn16, K17(Z1), Aib20, D-Glu24, αMeY25, K31(Z1), C-term NH2; Z1=(γ-Glu)-AEEA-CO-(CH2)12-CO2H
In the case of B8, the Ki [1] is reported as 458 nM, the Ki [2] is reported as 2.02 nM and the Ki [3] is reported as 0.0759 nM.

B9: Y-Aib-EGT-αMeF-TSD-4Pal-SI-αMeL-LD-Orn-K((2-[2-(2-Amino-ethoxy)-ethoxy]-acetyl)2-(γ-Glu)-CO-(CH2)12-CO2H)AQ-Aib-E-αMeF-I-(D-Glu)-αMeY-LIEGGK((2-[2-(2-Amino-etho … (peptide)
peptide: B1 peptide with I17K, F22X, K28E
modifications: Aib2, αMeF6, 4Pal10, αMeL13, Orn16, K17(Z1), Aib20, αMeF22, D-Glu24, αMeY25, K31(Z1), C-term NH2; Z1=AEEA2-(γ-Glu)-CO-(CH2)12-CO2H
For B9, the Ki [1] was 217 nM, the Ki [2] was 29 nM and the Ki [3] was 0.0761 nM.

B10: Y-Aib-EGT-αMeF(2F)-TSDY-aMeS-I-αMeL-LD-Orn-K((2-[2-(2-Amino-ethoxy)-ethoxy]-acetyl)2-(γ-Glu)-CO-(CH2)12-CO2H)AQ-Aib-EFI-(D-Glu)-αMeY-LIEGGK((2-[2-(2-Amino-ethox … (peptide)
peptide: B1 peptide with X10Y, S11X, I17K, K28E
modifications: Aib2, αMeF(2F)6, αMeS11, αMeL13, Orn16, K17(Z1), Aib20, D-Glu24, αMeY25, K31(Z1), C-term NH2; Z1=AEEA2-(γ-Glu)-CO-(CH2)12-CO2H
Work on B10 yielded a Ki [1] of 196 nM, a Ki [2] of 1.21 nM and a Ki [3] of 0.0573 nM.
